Data reported in paper PMC5114558, “Reader domain specificity and lysine demethylase-4 family function” (Nature Communications, 2016).

T1: H3 (17-32) K23me3 peptide, fluorescein-labelled, P68431
T1 chain: RKQLATKAARKSAPAT

B1: KDM4A double tudor domain (KDM4A-DTD), HaloTag-tagged, wild type, O75164 N931D; D939R; D945R (protein)
chain: ALQSITAGQKVISKHKNGRFYQCEVVRLTTETFYEVDFDDGSFSRNLYPERIVSQDCLQFGPPAEGEVVQVRWTDGQVYGAKFVASHPIQMYQVEFEDGSQLVVKRDDVYTLDEELP
B2: KDM4A-DTD Y973A (aromatic cage substitution) (domain or fragment)
chain: ALQSITAGQKVISKHKNGRFYQCEVVRLTTETFYEVNFDDGSFSDNLYPEDIVSQDCLQFGPPAEGEVVQVRWTDGQVAGAKFVASHPIQMYQVEFEDGSQLVVKRDDVYTLDEELP
B3: KDM4A-DTD N931R (domain or fragment)
chain: ALQSITAGQKVISKHKNGRFYQCEVVRLTTETFYEVRFDDGSFSDNLYPEDIVSQDCLQFGPPAEGEVVQVRWTDGQVYGAKFVASHPIQMYQVEFEDGSQLVVKRDDVYTLDEELP
B4: KDM4A-DTD N931D (domain or fragment)
chain: ALQSITAGQKVISKHKNGRFYQCEVVRLTTETFYEVDFDDGSFSDNLYPEDIVSQDCLQFGPPAEGEVVQVRWTDGQVYGAKFVASHPIQMYQVEFEDGSQLVVKRDDVYTLDEELP
B5: KDM4A-DTD N940A (domain or fragment)
chain: ALQSITAGQKVISKHKNGRFYQCEVVRLTTETFYEVNFDDGSFSDALYPEDIVSQDCLQFGPPAEGEVVQVRWTDGQVYGAKFVASHPIQMYQVEFEDGSQLVVKRDDVYTLDEELP

Experiments:
[1] = target: T1, H3 (17-32) K23me3 peptide, …; assay: fluorescence polarization; conditions: chain shown with the change
[2] = target: H3 (17-32) K23me3 peptide, fluorescein-labelled (UniProt P68431); assay: fluorescence polarisation; fluorescein-labelled histone peptide 3 nM, KDM4 DTD titrated 0.1-100 μM; 30 mM HEPES, 150 mM NaCl pH 7.4, 0.01% Triton X-100

Row | Binder | Kd [1] [µM] | Kd [2] [µM]
1 | B1 | 3.1 | –
2 | B2 | – | 285
3 | B3 | – | 73.9
4 | B4 | – | 0.85
5 | B5 | – | 57.4
